Tests used:
Test in all cases: flow cytometry, CHO-S cells expressing the target
[1] = molecular target: Macaca fascicularis (crab-eating macaque) SIGLEC15 on CHO-S-fasSIGLEC15 cells (Macaca fascicularis (crab-eating macaque))
[2] = molecular target: dog SIGLEC15 on CHO-S-dSIGLEC15 cells (dog)
[3] = molecular target: human SIGLEC15 on CHO-S-hSIGLEC15 cells (human) (UniProt Q6ZMC9)
[4] = molecular target: mouse SIGLEC15 on CHO-S-mSIGLEC15 cells (mouse)
Chain of mouse SIGLEC15 on CHO-S-mSIGLEC15 cells (mouse) (chain, as listed by the source limits assumed): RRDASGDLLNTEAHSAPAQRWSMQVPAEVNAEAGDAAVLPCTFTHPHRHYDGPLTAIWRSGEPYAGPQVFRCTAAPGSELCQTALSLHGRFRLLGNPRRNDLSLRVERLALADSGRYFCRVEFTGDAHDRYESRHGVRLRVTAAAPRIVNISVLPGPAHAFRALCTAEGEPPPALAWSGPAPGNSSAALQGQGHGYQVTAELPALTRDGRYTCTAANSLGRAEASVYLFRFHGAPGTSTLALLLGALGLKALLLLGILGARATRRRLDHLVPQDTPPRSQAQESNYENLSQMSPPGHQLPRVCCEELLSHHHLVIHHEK

Chain of human SIGLEC15 on CHO-S-hSIGLEC15 cells (human) (Q6ZMC9 20-328 limits assumed): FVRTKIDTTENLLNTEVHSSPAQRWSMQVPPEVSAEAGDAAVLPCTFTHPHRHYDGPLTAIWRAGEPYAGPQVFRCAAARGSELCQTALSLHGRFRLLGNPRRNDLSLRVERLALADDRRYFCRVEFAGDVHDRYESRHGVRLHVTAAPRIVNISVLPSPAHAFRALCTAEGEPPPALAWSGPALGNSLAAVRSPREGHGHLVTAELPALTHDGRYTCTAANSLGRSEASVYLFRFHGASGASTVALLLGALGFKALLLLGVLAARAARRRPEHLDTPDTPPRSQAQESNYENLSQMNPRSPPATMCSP
Chain of dog SIGLEC15 on CHO-S-dSIGLEC15 cells (dog) (chain, as listed by the source limits assumed): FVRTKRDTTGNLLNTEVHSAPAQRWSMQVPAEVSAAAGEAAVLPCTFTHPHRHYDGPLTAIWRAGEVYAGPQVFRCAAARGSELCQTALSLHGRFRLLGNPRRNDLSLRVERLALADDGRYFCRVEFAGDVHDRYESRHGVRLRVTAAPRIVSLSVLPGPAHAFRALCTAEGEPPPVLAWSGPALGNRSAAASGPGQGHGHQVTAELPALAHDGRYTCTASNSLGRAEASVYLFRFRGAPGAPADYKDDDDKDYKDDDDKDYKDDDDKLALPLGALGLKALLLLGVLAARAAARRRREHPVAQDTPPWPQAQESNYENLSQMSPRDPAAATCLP

Work on NC yielded a Percentage of Positive Cells [1] of 0.2%, a Percentage of Positive Cells [2] of 0.6% and a Percentage of Positive Cells [3] of 0.1%. It also gave a Percentage of Positive Cells [4] of 0.1%.
In the case of NC + secondary antibody, the Percentage of Positive Cells [1] was 0%, the Percentage of Positive Cells [2] was 0.7% and the Percentage of Positive Cells [3] was 0%. The Percentage of Positive Cells [4] was 0.3%.
